The test addresses Lip-NKD-HisC (human (identical sequence in mouse and human)) (UniProt Q969G9). The test can be described thus: aggregation and co-aggregation assay read by PAGE; purified proteins in 15 mM acetate, 150 mM NaCl, pH 5.0 mixed in different ratios; after 10 min 1 M Tris-HCl pH 8.0 added to 200 mM; after 20 min boiled 10 min in LDS sample buffer; PAGE under denaturing and reducing conditions.

Sequence of Lip-NKD-HisC (human (identical sequence in mouse and human)) (Q969G9 whole entry): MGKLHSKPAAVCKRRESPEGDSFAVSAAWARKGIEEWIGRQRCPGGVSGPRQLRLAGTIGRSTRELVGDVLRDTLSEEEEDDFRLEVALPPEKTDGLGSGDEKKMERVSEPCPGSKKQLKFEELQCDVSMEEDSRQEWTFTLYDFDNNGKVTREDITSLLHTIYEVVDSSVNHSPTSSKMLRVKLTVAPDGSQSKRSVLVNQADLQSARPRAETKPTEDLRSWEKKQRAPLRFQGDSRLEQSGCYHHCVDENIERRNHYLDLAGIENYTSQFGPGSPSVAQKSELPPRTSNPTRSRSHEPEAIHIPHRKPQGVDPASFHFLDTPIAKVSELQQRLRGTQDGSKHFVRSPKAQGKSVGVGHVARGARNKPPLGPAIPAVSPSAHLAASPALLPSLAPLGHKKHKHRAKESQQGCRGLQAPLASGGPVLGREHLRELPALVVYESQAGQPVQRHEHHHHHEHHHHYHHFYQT

B1: MBP-Axin2-HisC (domain or fragment)
chain: KHVHHHYIHHHA
For B1, the molecules per core (molecules per core) is under 4.

For the origin of these results see publication PMC7581431.
